Measured values reported in PMC3412864 (PLoS ONE, 2012).

How the values were obtained:
Gh-ChrR [1] = molecular target: T1, Gh-ChrR (Novacetimonas hansenii, UniProt D5QFC5); assay: initial velocities, ordered bireactant model with substrate inhibition; format: biochemical; conditions: competitive with chromate, dead-end FMN-enzyme-NADH complex
T1 construct: gene GXY_09224; full length (193 native residues) plus C-terminal 6xHis tag kept; E. coli BL21(DE3), codon-optimised
Text: initial velocities, ordered bireactant model with substrate inhibition on Gh-ChrR | Ki is the dissociation constant of the dead-end product of FMN-Gh-ChrR-NADH

Gh-ChrR [2] = molecular target: T1, Gh-ChrR; assay: X-ray crystal structure, […] Å; absorbance stoichiometry; format: binding; conditions: non-covalent, one FMN per monomer, co-purified
Gh-ChrR [3] = molecular target: T1, Gh-ChrR; assay: chromate reduction rate; format: biochemical; conditions: 200 µM NADPH, 5 µM enzyme, 50 mM Tris-HCl, 100 mM NaCl, pH 7.4
[4] = molecular target: the molecule itself; assay: crystal structure; hanging-drop vapor diffusion at room temperature; protein ~9 mg/mL in 20 mM Tris-HCl, 150 mM NaCl, pH 7.4; precipitant 0.5% PEG4000, 10% isopropanol, 0.1 M HEPES pH 7.5; 2.25 Å; four monomers in the asymmetric unit
[5] = substrate: NC(=O)C1=CN([C@@H]2O[C@H](COP(=O)(O)OP(=O)(O)OC[C@H]3O[C@@H](n4cnc5c(N)ncnc54)[C@H](O)[C@@H]3O)[C@@H](O)[C@H]2O)C=CC1; assay: initial velocities, ordered bireactant model with substrate inhibition; format: biochemical, Novacetimonas hansenii; conditions: varied chromate and NADH, Tris-HCl pH 7.4
Text: initial velocities, ordered bireactant model with substrate inhibition on […] | KmB is the Michaelis-Menten constant of NADH

purified protein = substrate: [O]=[Cr](=[O])([OH])[OH]; assay: purified protein; conditions: 100 µM NADH, 5 µM enzyme, 50 mM Tris-HCl, 100 mM NaCl, pH 7.4, 37°C, aerobic

## NC(=O)C1=CN([C@@H]2O[C@H](COP(=O)(O)OP(=O)(O)OC[C@H]3O[C@@H](n4cnc5c(N)ncnc54)[C@H](O)[C@@H]3O)[C@@H](O)[C@H]2O)C=CC1 [NADH]
Gh-ChrR [1]
  Ki: 3.5 ± 0.7 µM

## Cc1cc2nc3c(=O)[nH]c(=O)nc-3n(C[C@H](O)[C@H](O)[C@H](O)COP(=O)(O)O)c2cc1C [FMN]
Gh-ChrR [2]
  X-ray crystal structure, 2.25 Å; absorbance stoichiometry: Gh-ChrR crystallized with one molecule of FMN associated with each protein monomer

## NC(=O)C1=CN([C@@H]2O[C@H](COP(=O)(O)OP(=O)(O)OC[C@H]3O[C@@H](n4cnc5c(N)ncnc54)[C@H](OP(=O)(O)O)[C@@H]3O)[C@@H](O)[C@H]2O)C=CC1 [NADPH]
Gh-ChrR [3]
  chromate reduction rate: Both NADH and NADPH support maximal chromate reduction by Gh-ChrR

B1: Gluconacetobacter hansenii chromate reductase (Gh-ChrR) (enzyme, Gluconacetobacter hansenii ATCC 23769)
chain: MTTTSPLHFVTLLGSLRKASFNAAVARALPEIAPEGIAITPLGSIGTFPHYSQDVQEEGFPAPVLTMAQQIATADAVVIVTPEYNYSVPGVLKNAIDWLSRVSPQPLAGKPVALVTASPGMIGGARAQYHLRQSLVFLDAYVLNRPEAMIGQVTGKVDAQTLELSDVATREFLARQLDALAALARTLSPRAIT
notes: Gh-ChrR, NAD(P)H-dependent FMN reductase from Gluconacetobacter hansenii ATCC 23769 (ZP_06834583); 193 native residues; codon-optimised synthetic gene in pJexpress411; Monomer 21.3 kDa (193 native residues plus a six-residue C-terminal poly-histidine tag); In the crystal 5-6 N-terminal and 7-9 C-terminal residues are not seen; also called putative chromate reductase; source: E. coli BL21(DE3), …
[4]
  stoichiometry N: 4
[5]
  Km: 7 ± 1 µM
Purified protein
  Km: 240 ± 70 µM
  Vmax: 0.75 µmol/min/mg
  kcat: 0.25 s⁻¹
  kcat/Km: 1000 M⁻¹ s⁻¹

B2: Gh-ChrR (Novacetimonas hansenii ATCC 23769; R101A) (protein)
chain: MTTTSPLHFVTLLGSLRKASFNAAVARALPEIAPEGIAITPLGSIGTFPHYSQDVQEEGFPAPVLTMAQQIATADAVVIVTPEYNYSVPGVLKNAIDWLSAVSPQPLAGKPVALVTASPGMIGGARAQYHLRQSLVFLDAYVLNRPEAMIGQVTGKVDAQTLELSDVATREFLARQLDALAALARTLSPRAIT
Purified protein
  Km: 1900 ± 600 µM
  Vmax: 0.24 µmol/min/mg
  kcat: 0.08 s⁻¹
  kcat/Km: 40 M⁻¹ s⁻¹

B3: Gh-ChrR (Novacetimonas hansenii ATCC 23769; S118A) (protein)
chain: MTTTSPLHFVTLLGSLRKASFNAAVARALPEIAPEGIAITPLGSIGTFPHYSQDVQEEGFPAPVLTMAQQIATADAVVIVTPEYNYSVPGVLKNAIDWLSRVSPQPLAGKPVALVTAAPGMIGGARAQYHLRQSLVFLDAYVLNRPEAMIGQVTGKVDAQTLELSDVATREFLARQLDALAALARTLSPRAIT
Purified protein
  Km: 600 ± 20 µM
  Vmax: 0.9 µmol/min/mg
  kcat: 0.3 s⁻¹
  kcat/Km: 500 M⁻¹ s⁻¹

B4: Gh-ChrR (Novacetimonas hansenii ATCC 23769; N85A) (protein)
chain: MTTTSPLHFVTLLGSLRKASFNAAVARALPEIAPEGIAITPLGSIGTFPHYSQDVQEEGFPAPVLTMAQQIATADAVVIVTPEYAYSVPGVLKNAIDWLSRVSPQPLAGKPVALVTASPGMIGGARAQYHLRQSLVFLDAYVLNRPEAMIGQVTGKVDAQTLELSDVATREFLARQLDALAALARTLSPRAIT
Purified protein
  Km: 600 ± 100 µM
  Vmax: 0.16 µmol/min/mg
  kcat: 0.053 s⁻¹
  kcat/Km: 90 M⁻¹ s⁻¹
